Patent US20190218613A1, “METHODS OF DETECTING THE FORMATION OF CELLULAR CLUSTERS OF RNA” (The Regents of the University of California, priority 2017, published 2019)
One block for each molecule: values may come before it.

System: 47× CAG RNA
Assay: In vitro RNA phase separation/gelation assay (fluorescence micrographs, index of dispersion)
Type: biochemical
Settings: proteinase K 60 U/mL, DNase I 200 U/mL, RNaseA 0.7 U/mL; 10 minutes, room temperature
Method: For phase separation/gelation assays, RNAs were diluted to concentrations of 0.5 ng/μL to 0.5 μg/μL in 10 mM Tris pH 7.0, 10 mM MgCl2, 25 mM NaCl buffer, unless indicated otherwise. Nuclease-free buffer stocks were purchased from Ambion. RNA was denatured at 95° C. for 3 minutes and cooled down at 1-4° C. per minute to 37° C. final temperature in a thermocycler and imaged immediately. Samples were visualized using a custom spinning disk confocal microscope (Nikon Ti-Eclipse equipped with a Yokogawa CSU-X spinning disk module) using a×100, 1.49 numerical aperture oil immersion objective and an air-cooled EM-CCD (electron multiplying charge-coupled device). The extent of phase separation/gelation was quantified by the index of dispersion (σ^2/μ) of fluorescence intensity per pixel (pixel size 83 nm×83 nm). Briefly, variance in the fluorescence intensity per image was determined, and normalized to the mean fluorescence intensity in the solution phase of the RNA. For dilute solution (<10% of imaging area occupied with clusters), this parameter reports the extent of inhomogeneity in the sample. At least 20 independent imaging areas (about 1,800 μm^2 each) were analyzed for each condition to achieve a representative measure across the sample. Each datum point in the bar graphs represents one imaging area. […]

- dissolution of 47× CAG RNA clusters by enzyme treatment: not
B1: proteinase K: protease enzyme (protein, UniProt P06873 106-384, looked up)
Proteinase K: AAQTNAPWGLARISSTSPGTSTYYYDESAGQGSCVYVIDTGIEASHPEFEGRAQMVKTYYYSSRDGNGHGTHCAGTVGSRTYGVAKKTQLFGVKVLDDNGSGQYSTIIAGMDFVASDKNNRNCPKGVVASLSLGGGYSSSVNSAAARLQSSGVMVAVAAGNNNADARNYSPASEPSVCTVGASDRYDRRSSFSNYGSVLDIFGPGTSILSTWIGGSTRSISGTSMATPHVAGLAAYLMTLGKTTAASACRYIADTANKGDLSNIPFGTVNLLAYNNYQA

- dissolution of 47× CAG RNA clusters by enzyme treatment: dissolved
B2: RNase A: ribonuclease enzyme (protein, UniProt P61823 27-150, looked up)
Ribonuclease pancreatic: KETAAAKFERQHMDSSTSAASSSNYCNQMMKSRNLTKDRCKPVNTFVHESLADVQAVCSQKNVACKNGQTNCYQSYSTMSITDCRETGSSKYPNCAYKTTQANKHIIVACEGNPYVPVHFDASV
